Reference: patent publication US20210238260
Substitutions are numbered along the chain they refer to. Names and notes keep the numbering of the source.

Assays:
[1] = molecular target: T1, Antithrombin III (plasma purified human AT-III, Molecular Innovations); experiment: AT-III/UFH inhibition, standard assay (35 nM-0 nM AT-III); 999 nM is the assigned lower limit for less than 10% inhibition
[2] = molecular target: antithrombin III (plasma purified human AT-III), used as the AT-III/unfractionated heparin complex; experiment: K0.5 ratio to Catalyst Biosciences WT FIXa, AT-III/UFH inhibition assay (from lower-limit K0.5)
[3] = molecular target: T1, Antithrombin III (plasma purified human …); experiment: same assay; ratio of the lower-limit K0.5 to recombinant wild-type FIXa (Catalyst Biosciences WT)
[4] = molecular target: plasma purified human AT-III (Molecular Innovations), in complex with low molecular weight heparin
[5] = molecular target: T2, plasma purified human antithrombin III (AT-III), in complex with unfractionated heparin (UFH); experiment: ratio of K0.5 for AT-III/UFH inhibition, variant over Catalyst Biosciences WT FIXa; calculated from the lower-limit K0.5
[6] = molecular target: plasma purified human AT-III (antithrombin III), in complex with full-length unfractionated heparin (UFH); experiment: ratio of K0.5 of the variant to K0.5 of Catalyst Biosciences WT FIXa, AT-III/UFH inhibition
[7] = molecular target: plasma purified human AT-III (antithrombin III); experiment: same assay; ratio to K0.5 of Catalyst Biosciences WT FIXa; from lower limit value
[8] = molecular target: T3, plasma purified human antithrombin III (AT-III), in complex with unfractionated heparin; experiment: K0.5 of variant over K0.5 of Catalyst Biosciences WT FIXa; AT-III/UFH inhibition assay; from lower limit K0.5
[9] = molecular target: plasma purified human AT-III (antithrombin III); experiment: same assay; ratio to K0.5 of Catalyst Biosciences WT FIXa
[10] = molecular target: T2, plasma purified human antithrombin III …; experiment: ratio of K0.5 for AT-III/UFH inhibition, variant over Catalyst Biosciences WT FIXa
[11] = molecular target: T1, Antithrombin III (plasma purified human …); experiment: AT-III/UFH inhibition, expanded sensitivity assay (1000 nM-0 nM and 5000-0 nM AT-III); assigned lower limit for less than 10% inhibition
[12] = molecular target: T3, plasma purified human antithrombin III …; experiment: K0.5 of variant over K0.5 of Catalyst Biosciences WT FIXa; AT-III/UFH inhibition assay

Factor X (FX), P00742, sequence (P00742 whole entry, looked up): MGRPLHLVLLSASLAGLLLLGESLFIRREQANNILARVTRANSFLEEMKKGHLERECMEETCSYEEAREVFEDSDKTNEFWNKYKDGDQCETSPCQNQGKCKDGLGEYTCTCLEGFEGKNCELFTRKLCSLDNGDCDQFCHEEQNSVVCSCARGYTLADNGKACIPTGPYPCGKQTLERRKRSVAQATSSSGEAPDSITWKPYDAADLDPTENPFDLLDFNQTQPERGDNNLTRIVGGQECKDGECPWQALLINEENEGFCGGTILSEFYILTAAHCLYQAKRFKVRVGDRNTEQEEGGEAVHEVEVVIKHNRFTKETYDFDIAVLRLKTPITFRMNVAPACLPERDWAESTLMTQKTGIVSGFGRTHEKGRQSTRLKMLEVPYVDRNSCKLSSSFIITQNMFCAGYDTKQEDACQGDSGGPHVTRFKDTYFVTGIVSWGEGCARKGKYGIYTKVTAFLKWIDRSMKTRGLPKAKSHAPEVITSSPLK
Factor X, P00742, sequence (P00742 whole entry, looked up): as above

B1: FIXa-K293A/R338A/R403A (protein)
chain 1: YNSGKLEEFVQGNLERECMEEKCSFEEAREVFENTERTTEFWKQYVDGDQCESNPCLNGGSCKDDINSYECWCPFGFEGKNCELDVTCNIKNGRCEQFCKNSADNKVVCSCTEGYRLAENQKSCEPAVPFPCGRVSVSQTSKLTR
chain 2: VVGGEDAKPGQFPWQVVLNGKVDAFCGGSIVNEKWIVTAAHCVETGVKITVVAGEHNIEETEHTEQKRNVIRIIPHHNYNAAINKYNHDIALLELDEPLVLNSYVTPICIADAEYTNIFLKFGSGYVSGWGRVFHKGRSALVLQYLRVPLVDRATCLASTKFTIYNNMFCAGFHEGGRDSCQGDSGGPHVTEVEGTSFLTGIISWGEECAMKGKYGIYTKVSAYVNWIKEKTKLT
K0.5 [1]: > 999 nM | K0.5-mut/K0.5-wt [2]: > 51.7 fold | K0.5-mut/K0.5-wt [3]: > 51.7 | KM (Factor X, P00742): 0.0654 µM | % of WT kcat/KM (Factor X (FX), P00742): 55% | kcat (Factor X (FX), P00742): 1.6 s⁻¹ | kcat/KM (Factor X (FX), P00742): 2.5e+07 M⁻¹ s⁻¹ | K0.5 [4]: 497 nM | K0.5-mut/K0.5-wt [4]: 16.9 fold

B2: FIXa-R318Y/R338E/T343R/R403E/E410N (protein)
chain 1: B1 chain 1
chain 2: B1 chain 2 with A113K, R138Y, A158E, T163R, A223E, E230N
K0.5-mut/K0.5-wt [5]: > 517 fold | % of WT kcat/KM (Factor X, P00742): 1217% | kcat (Factor X, P00742): 11.8 s⁻¹ | kcat/KM (Factor X, P00742): 5.4e+08 M⁻¹ s⁻¹ | KM (Factor X (FX), P00742): 0.0223 µM | catalytic activity (kcat/KM) for activation of FX (Factor X (FX), P00742): displayed some of the greatest increases in catalytic activity | kcat of FX activation by FIXa (Xase complex with FVIIIa, PC/PS vesicles, Ca2+) (Factor X (FX), P00742): 9.7 s⁻¹

B3: FIXa variant K247N/N249S/N260S/R318Y/R338E/R403E/E410N (mature FIX numbering) (protein)
chain 1: B1 chain 1
chain 2: B1 chain 2 with K67N, N69S, N80S, A113K, R138Y, A158E, A223E, E230N
K0.5-mut/K0.5-wt [6]: 288

B4: FIXa variant K247N/N249S/N260S (mature FIX numbering) (protein)
chain 1: B1 chain 1
chain 2: B1 chain 2 with K67N, N69S, N80S, A113K, A158R, A223R
K0.5-mut/K0.5-wt [6]: 8.1

B5: FIXa-Y155F/R318Y/R338E/R403E/E410N (protein)
chain 1: B1 chain 1
chain 2: B1 chain 2 with A113K, R138Y, A158E, A223E, E230N
KM (Factor X, P00742): 0.0304 µM | kcat (Factor X (FX), P00742): 5.3 s⁻¹ | K0.5-mut/K0.5-wt [7]: > 517

B6: FIXa-A103N/N105S/Y155F/R318Y/R338E/R403E/E410N (protein)
chain 1: B1 chain 1 with A103N, N105S
chain 2: B1 chain 2 with A113K, R138Y, A158E, A223E, E230N
KM (Factor X, P00742): 0.0507 µM | kcat (Factor X (FX), P00742): 6.4 s⁻¹ | K0.5-mut/K0.5-wt [7]: > 517

B7: FIXa-D104N/K106S/R318Y/R338E/R403E/E410N (protein)
chain 1: B1 chain 1 with D104N, K106S
chain 2: B1 chain 2 with A113K, R138Y, A158E, A223E, E230N
KM (Factor X, P00742): 0.0385 µM | kcat (Factor X (FX), P00742): 5.7 s⁻¹ | K0.5-mut/K0.5-wt [7]: > 517

B8: FIXa D104N/K106S/R318Y/R338E/R403E/E410N (protein)
chain 1: B1 chain 1 with D104N, K106S
chain 2: B1 chain 2 with A113K, R138Y, A158E, A223E, E230N
K0.5-mut/K0.5-wt [8]: > 517 | KM (Factor X (FX), P00742): 0.0385 µM

B9: FIXa A103N/N105S/Y155F/R318Y/R338E/R403E/E410N (protein)
chain 1: B1 chain 1 with A103N, N105S
chain 2: B1 chain 2 with A113K, R138Y, A158E, A223E, E230N
K0.5-mut/K0.5-wt [8]: > 517 | KM (Factor X (FX), P00742): 0.0507 µM

B10: FIXa-A103N/N105S/R318Y/R338E/R403E/E410N (protein)
chain 1: B1 chain 1 with A103N, N105S
chain 2: B1 chain 2 with A113K, R138Y, A158E, A223E, E230N
KM (Factor X, P00742): 0.0447 µM | kcat (Factor X (FX), P00742): 5.4 s⁻¹ | K0.5-mut/K0.5-wt [9]: 475

B11: FIXa variant Y155F/K247N/N249S/N260S (mature FIX numbering) (protein)
chain 1: B1 chain 1
chain 2: B1 chain 2 with K67N, N69S, N80S, A113K, A158R, A223R
K0.5-mut/K0.5-wt [6]: 7.9

B12: FIXa Y155F/R318Y/R338E/R403E/E410N (protein)
chain 1: B1 chain 1
chain 2: B1 chain 2 with A113K, R138Y, A158E, A223E, E230N
K0.5-mut/K0.5-wt [8]: > 517 | KM (Factor X (FX), P00742): 0.0304 µM

B13: FIXa-D104N/K106S/Y155F/R318Y/R338E/R403E/E410N (protein)
chain 1: B1 chain 1 with D104N, K106S
chain 2: B1 chain 2 with A113K, R138Y, A158E, A223E, E230N
KM (Factor X, P00742): 0.048 µM | kcat (Factor X (FX), P00742): 8.5 s⁻¹ | K0.5-mut/K0.5-wt [7]: > 517

B14: FIXa-K293E/R338E/R403E (protein)
chain 1: B1 chain 1
chain 2: B1 chain 2 with A113E, A158E, A223E
K0.5 [1]: > 999 nM | K0.5-mut/K0.5-wt [2]: > 51.7 fold | K0.5-mut/K0.5-wt [3]: > 51.7 | KM (Factor X, P00742): 0.05 µM | % of WT kcat/KM (Factor X (FX), P00742): 37% | kcat (Factor X (FX), P00742): 0.8 s⁻¹ | kcat/KM (Factor X (FX), P00742): 1.7e+07 M⁻¹ s⁻¹ | K0.5 [4]: 418 nM | K0.5-mut/K0.5-wt [4]: 14.2 fold

B15: FIXa D104N/K106S/Y155F/R318Y/R338E/R403E/E410N (protein)
chain 1: B1 chain 1 with D104N, K106S
chain 2: B1 chain 2 with A113K, R138Y, A158E, A223E, E230N
K0.5-mut/K0.5-wt [8]: > 517 | KM (Factor X (FX), P00742): 0.048 µM

B16: FIXa variant D104N/K106S/Y155F/K247N/N249S/N260S (mature FIX numbering) (protein)
chain 1: B1 chain 1 with D104N, K106S
chain 2: B1 chain 2 with K67N, N69S, N80S, A113K, A158R, A223R
K0.5-mut/K0.5-wt [6]: 35.8

B17: FIXa-K247N/N249S/N260S/R318Y/R338E/R403E/E410N (protein)
chain 1: B1 chain 1
chain 2: B1 chain 2 with K67N, N69S, N80S, A113K, R138Y, A158E, A223E, E230N
K0.5-mut/K0.5-wt [10]: 288 fold | % of WT kcat/KM (Factor X, P00742): 217% | kcat (Factor X, P00742): 6 s⁻¹ | kcat/KM (Factor X, P00742): 9.7e+07 M⁻¹ s⁻¹ | KM (Factor X (FX), P00742): 0.0622 µM | kcat of FX activation by FIXa (Xase complex with FVIIIa, PC/PS vesicles, Ca2+) (Factor X (FX), P00742): 3.4 s⁻¹

B18: FIXa-D104N/K106S/K247N/N249S/N260S (protein)
chain 1: B1 chain 1 with D104N, K106S
chain 2: B1 chain 2 with K67N, N69S, N80S, A113K, A158R, A223R
K0.5-mut/K0.5-wt [10]: 65.3 fold | % of WT kcat/KM (Factor X, P00742): 22% | kcat (Factor X, P00742): 0.6 s⁻¹ | kcat/KM (Factor X, P00742): 9.8e+06 M⁻¹ s⁻¹ | KM (Factor X (FX), P00742): 0.0612 µM | kcat of FX activation by FIXa (Xase complex with FVIIIa, PC/PS vesicles, Ca2+) (Factor X (FX), P00742): 0.6 s⁻¹

B19: FIXa-R318Y/R338E/R403E (protein)
chain 1: B1 chain 1
chain 2: B1 chain 2 with A113K, R138Y, A158E, A223E
K0.5 [11]: > 10 µM | K0.5-mut/K0.5-wt [2]: > 517 fold | K0.5-mut/K0.5-wt [3]: > 517 | KM (Factor X, P00742): 0.0537 µM

B20: FIXa A103N/N105S/R318Y/R338E/R403E/E410N (protein)
chain 1: B1 chain 1 with A103N, N105S
chain 2: B1 chain 2 with A113K, R138Y, A158E, A223E, E230N
K0.5-mut/K0.5-wt [12]: 475 | KM (Factor X (FX), P00742): 0.0447 µM

B21: FIXa-D104N/K106S/Y155F/K247N/N249S/N260S (protein)
chain 1: B1 chain 1 with D104N, K106S
chain 2: B1 chain 2 with K67N, N69S, N80S, A113K, A158R, A223R
K0.5-mut/K0.5-wt [10]: 35.8 fold | % of WT kcat/KM (Factor X, P00742): 18% | kcat (Factor X, P00742): 0.5 s⁻¹ | kcat/KM (Factor X, P00742): 8.2e+06 M⁻¹ s⁻¹ | KM (Factor X (FX), P00742): 0.0685 µM | kcat of FX activation by FIXa (Xase complex with FVIIIa, PC/PS vesicles, Ca2+) (Factor X (FX), P00742): 0.5 s⁻¹

B22: FIXa D203N/F205T/R318Y/E410N (protein)
chain 1: B1 chain 1
chain 2: B1 chain 2 with D23N, F25T, A113K, R138Y, A158R, A223R, E230N
K0.5-mut/K0.5-wt [12]: 66.2 | KM (Factor X (FX), P00742): 0.0457 µM

B23: FIXa-D203N/F205T/R318Y/E410N (protein)
chain 1: B1 chain 1
chain 2: B1 chain 2 with D23N, F25T, A113K, R138Y, A158R, A223R, E230N
KM (Factor X, P00742): 0.0457 µM | kcat (Factor X (FX), P00742): 1.6 s⁻¹ | K0.5-mut/K0.5-wt [9]: 66.2

B24: FIXa variant D104N/K106S/K247N/N249S/N260S (mature FIX numbering) (protein)
chain 1: B1 chain 1 with D104N, K106S
chain 2: B1 chain 2 with K67N, N69S, N80S, A113K, A158R, A223R
K0.5-mut/K0.5-wt [6]: 65.3
